Experimental data: article PMC9890132 (Molecular Cancer Therapeutics, 2022)

Key:
[1] = molecular target: cynomolgus monkey FolRα overexpressed on CHO cells (Macaca fascicularis, UniProt A0A2K5U044); assay: flow cytometry on cells
[2] = molecular target: Recombinantly-expressed FolRα extracellular domain (Acro Biosystems) (Homo sapiens, UniProt P15328); assay: SPR

binding result [1]: binds
Kd [2]: 2.3 nM
B1: anti-FolRα antibody SP8166 (antibody, V domains shown)
VH: EVQLVESGGGLVQPGGSLRLSCAASGFNIRTQSIHWVRQAPGKGLEWIGDIFPIDGITDYADSVKGRFTISADTSKNTAYLQMNSLRAEDTAVYYCARGSWSWPSGMDYYLDYWGQGTLVTVSS
VL: not shown
